The values below come from patent US20260265385A1 (ANAPTYSBIO, published 2026).

The target in assay [1] is T1, recombinant cynomolgus IL-2Rβ (extracellular domain, Ala1-Thr215) (cynomolgus, UniProt Q38J85 27-240).
T1 construct: extracellular domain; Analyte in SPR; also called cynomolgus LL-2Rβ; Cyno IL-2RB
T1 sequence (looked up): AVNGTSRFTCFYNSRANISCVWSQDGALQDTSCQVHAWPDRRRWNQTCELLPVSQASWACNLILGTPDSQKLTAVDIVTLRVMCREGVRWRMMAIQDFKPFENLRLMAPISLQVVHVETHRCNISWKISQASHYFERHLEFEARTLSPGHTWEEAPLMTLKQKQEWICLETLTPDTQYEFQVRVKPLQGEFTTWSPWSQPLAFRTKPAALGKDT
Kind of assay: SPR, antibody captured on Protein A chip. How it is done: (§1) Surface plasmon resonance (SPR) was used to determine the binding affinities. The M6-1625 and M10-1275 antibodies were captured onto a Cytiva Protein A Chip for 60 seconds at 0.5 μg/mL for 60 seconds. The antibodies were exposed to recombinant human LL-2Rβ or cynomolgus LL-2Rβ (corresponding to residues Ala1-Thr215 of the extracellular domains excluding the signal peptide) at typical concentrations ranging from 0.4 nM to 11 nM with typical 300 second associations and 1200 second dissociations using a BiacoreS200 instrument. Sensorgrams were fit globally using a 1:1 binding model in the Biacore T200 Evaluation Software to calculate on- and off-rates and KD values.
A general note: SPR reads the build-up and loss of mass on a sensor chip optically.

Assay [2] deals with T2, recombinant human IL-2Rβ (extracellular domain, Ala1-Thr215) (human, UniProt P14784 27-240).
T2 construct: extracellular domain; Analyte in SPR; Ala1-Thr215 is counted on the mature protein; also called human LL-2Rβ; Human IL-2RB
T2 sequence (looked up): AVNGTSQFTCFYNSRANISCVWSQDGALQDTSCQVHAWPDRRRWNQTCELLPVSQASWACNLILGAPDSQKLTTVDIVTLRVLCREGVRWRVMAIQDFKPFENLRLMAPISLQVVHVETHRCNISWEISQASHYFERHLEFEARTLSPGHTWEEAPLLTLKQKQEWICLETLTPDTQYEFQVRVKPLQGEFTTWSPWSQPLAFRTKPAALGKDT
Kind of assay: SPR, antibody captured on Protein A chip. How it is done:
as §1

In general, Kd refers to the equilibrium constant for the complex coming apart.

B1: APE15279 (antibody, V domains shown)
VH: QVQLVQSGAEVKKPGASVKVSCKASGYTFTSQWIEWVRQAPGQGLEWMGEILPGSGSINHNEKFQGRVTMTRDTSTSTVYMELSSLRSEDTAVYYCTRHYGSFDYWGQGTTVTVSS
VL: DIQMTQSPSSLSASVGDRVTITCKASQNVGTDVAWYQQKPGKAPKSLIYSASYRYSGVPSRFSGSGSGTDFTLTISSLQPEDFATYFCHQYESYPFTFGQGTKLEIKR
notes: M6-p1625 series
For the molecule B1, the dissociation constant (Kd) is 0.533 nM in assay [1] and 0.522 nM in assay [2].

B2: APE15299 (antibody, V domains shown)
VH: QVQLVQSGAEVKKPGASVKVSCKASGYSFSKHWIQWVRQAPGQGLEWMGEILPGSGSINHNEKFQGRVTMTRDTSTSTVYMELSSLRSEDTAVYYCTRHYGSFDYWGQGTTVTVSS
VL: DIQMTQSPSSLSASVGDRVTITCKASQNVGTDVAWYQQKPGKAPKSLIYSASYRYSGVPSRFSGSGSGTDFTLTISSLQPEDFATYFCHQYESYPFTFGQGTKLEIKR
notes: M6-p1625 series
For B2, the figures for the dissociation constant (Kd) in assay [1] and in assay [2] were 0.39 nM and 0.348 nM, respectively.

B3: APE15280 (antibody, V domains shown)
VH: QVQLVQSGAEVKKPGASVKVSCKASGYTFSRQWIEWVRQAPGQGLEWMGEILPGSGSINHNEKFQGRVTMTRDTSTSTVYMELSSLRSEDTAVYYCTRHYGSFDYWGQGTTVTVSS
VL: DIQMTQSPSSLSASVGDRVTITCKASQNVGTDVAWYQQKPGKAPKSLIYSASYRYSGVPSRFSGSGSGTDFTLTISSLQPEDFATYFCHQYESYPFTFGQGTKLEIKR
notes: M6-p1625 series
On to B3, for which the Kd in assay [1] worked out at 0.202 nM; in assay [2] it was 0.161 nM.

B4: APE15296 (antibody, V domains shown)
VH: QVQLVQSGAEVKKPGASVKVSCKASGYRFSTQWIEWVRQAPGQGLEWMGEILPGSGSINHNEKFQGRVTMTRDTSTSTVYMELSSLRSEDTAVYYCTRHYGSFDYWGQGTTVTVSS
VL: DIQMTQSPSSLSASVGDRVTITCKASQNVGTDVAWYQQKPGKAPKSLIYSASYRYSGVPSRFSGSGSGTDFTLTISSLQPEDFATYFCHQYESYPFTFGQGTKLEIKR
notes: M6-p1625 series
Turning to B4, the Kd in assay [1] turned out to be 0.825 nM; in assay [2] it was 0.851 nM.

B5: APE15284 (antibody, V domains shown)
VH: QVQLVQSGAEVKKPGASVKVSCKASGYTFGRYWIQWVRQAPGQGLEWMGEILPGSGSINHNEKFQGRVTMTRDTSTSTVYMELSSLRSEDTAVYYCTRHYGSFDYWGQGTTVTVSS
VL: DIQMTQSPSSLSASVGDRVTITCKASQNVGTDVAWYQQKPGKAPKSLIYSASYRYSGVPSRFSGSGSGTDFTLTISSLQPEDFATYFCHQYESYPFTFGQGTKLEIKR
notes: M6-p1625 series
For the molecule B5, the Kd in assay [1] worked out at 0.0705 nM; in assay [2], 0.0566 nM.

B6: APE15297 (antibody, V domains shown)
VH: QVQLVQSGAEVKKPGASVKVSCKASGYSFIIHWIQWVRQAPGQGLEWMGEILPGSGSINHNEKFQGRVTMTRDTSTSTVYMELSSLRSEDTAVYYCTRHYGSFDYWGQGTTVTVSS
VL: DIQMTQSPSSLSASVGDRVTITCKASQNVGTDVAWYQQKPGKAPKSLIYSASYRYSGVPSRFSGSGSGTDFTLTISSLQPEDFATYFCHQYESYPFTFGQGTKLEIKR
notes: M6-p1625 series
In the case of B6, the results for the equilibrium dissociation constant (Kd) in assay [1] and in assay [2] were 0.153 nM and 0.157 nM, respectively.

B7: APE15298 (antibody, V domains shown)
VH: QVQLVQSGAEVKKPGASVKVSCKASGYIFSRYWIQWVRQAPGQGLEWMGEILPGSVSINHNEKFQGRVTMTRDTSTSTVYMELSSLRSEDTAVYYCTRHYGSFDYWGQGTTVTVSS
VL: DIQMTQSPSSLSASVGDRVTITCKASQNVGTDVAWYQQKPGKAPKSLIYSASYRYSGVPSRFSGSGSGTDFTLTISSLQPEDFATYFCHQYESYPFTFGQGTKLEIKR
notes: M6-p1625 series
Regarding B7, the figures for the Kd in assay [1] and in assay [2] were 0.132 nM and 0.0981 nM, respectively.

B8: APE15293 (antibody, V domains shown)
VH: QVQLVQSGAEVKKPGASVKVSCKASGYTFSSHWIQWVRQAPGQGLEWMGEILPGSGSINHNEKFQGRVTMTRDTSTSTVYMELSSLRSEDTAVYYCTRHYGSFDYWGQGTTVTVSS
VL: DIQMTQSPSSLSASVGDRVTITCKASQNVGTDVAWYQQKPGKAPKSLIYSASYRYSGVPSRFSGSGSGTDFTLTISSLQPEDFATYFCHQYESYPFTFGQGTKLEIKR
notes: M6-p1625 series
In the case of B8, the dissociation constant (Kd) in assay [1] was found to be 0.359 nM; in assay [2], 0.351 nM.

B9: APE15300 (antibody, V domains shown)
VH: QVQLVQSGAEVKKPGASVKVSCKASGYAFVDNWIQWVRQAPGQGLEWMGEILPGSGSINHNEKFQGRVTMTRDTSTSTVYMELSSLRSEDTAVYYCTRHYGSFDYWGQGTTVTVSS
VL: DIQMTQSPSSLSASVGDRVTITCKASQNVGTDVAWYQQKPGKAPKSLIYSASYRYSGVPSRFSGSGSGTDFTLTISSLQPEDFATYFCHQYESYPFTFGQGTKLEIKR
notes: M6-p1625 series
Regarding B9, the Kd in assay [1] is 1.16 nM; in assay [2], 1.41 nM.

B10: APE15283 (antibody, V domains shown)
VH: QVQLVQSGAEVKKPGASVKVSCKASGYKFSSYWIQWVRQAPGQGLEWMGEILPGSGSINHNEKFQGRVTMTRDTSTSTVYMELSSLRSEDTAVYYCTRHYGSFDYWGQGTTVTVSS
VL: DIQMTQSPSSLSASVGDRVTITCKASQNVGTDVAWYQQKPGKAPKSLIYSASYRYSGVPSRFSGSGSGTDFTLTISSLQPEDFATYFCHQYESYPFTFGQGTKLEIKR
notes: M6-p1625 series
For the molecule B10, the equilibrium dissociation constant (Kd) in assay [1] was determined as 0.318 nM; in assay [2], 0.312 nM.

B11: APE15292 (antibody, V domains shown)
VH: QVQLVQSGAEVKKPGASVKVSCKASGYTFITYWIEWVRQAPGQGLEWMGEILPGSGSINHNEKFQGRVTMTRDTSTSTVYMELSSLRSEDTAVYYCTRHYGSFDYWGQGTTVTVSS
VL: DIQMTQSPSSLSASVGDRVTITCKASQNVGTDVAWYQQKPGKAPKSLIYSASYRYSGVPSRFSGSGSGTDFTLTISSLQPEDFATYFCHQYESYPFTFGQGTKLEIKR
notes: M6-p1625 series
For the molecule B11, the equilibrium dissociation constant (Kd) in assay [1] amounted to 0.437 nM; in assay [2] it was 0.376 nM.

B12: APE15290 (antibody, V domains shown)
VH: QVQLVQSGAEVKKPGASVKVSCKASGYPFTSYWIQWVRQAPGQGLEWMGEILPGSGSINHNEKFQGRVTMTRDTSTSTVYMELSSLRSEDTAVYYCTRHYGSFDYWGQGTTVTVSS
VL: DIQMTQSPSSLSASVGDRVTITCKASQNVGTDVAWYQQKPGKAPKSLIYSASYRYSGVPSRFSGSGSGTDFTLTISSLQPEDFATYFCHQYESYPFTFGQGTKLEIKR
notes: M6-p1625 series
Take B12: the dissociation constant (Kd) in assay [1] amounted to 0.305 nM; in assay [2], 0.261 nM.

B13: APE15291 (antibody, V domains shown)
VH: QVQLVQSGAEVKKPGASVKVSCKASGYTFARHWIGWVRQAPGQGLEWMGEILPGSGSINHNEKFQGRVTMTRDTSTSTVYMELSSLRSEDTAVYYCTRHYGSFDYWGQGTTVTVSS
VL: DIQMTQSPSSLSASVGDRVTITCKASQNVGTDVAWYQQKPGKAPKSLIYSASYRYSGVPSRFSGSGSGTDFTLTISSLQPEDFATYFCHQYESYPFTFGQGTKLEIKR
notes: M6-p1625 series
Regarding B13, the values for the Kd in assay [1] and in assay [2] were 2.68 nM and 1.98 nM, respectively.

B14: APE15286 (antibody, V domains shown)
VH: QVQLVQSGAEVKKPGASVKVSCKASGYLFSRYWIQWVRQAPGQGLEWMGEILPGSGSINHNEKFQGRVTMTRDTSTSTVYMELSSLRSEDTAVYYCTRHYGSFDYWGQGTTVTVSS
VL: DIQMTQSPSSLSASVGDRVTITCKASQNVGTDVAWYQQKPGKAPKSLIYSASYRYSGVPSRFSGSGSGTDFTLTISSLQPEDFATYFCHQYESYPFTFGQGTKLEIKR
notes: M6-p1625 series
For the molecule B14, the equilibrium dissociation constant (Kd) in assay [1] amounted to 0.104 nM; in assay [2], 0.0873 nM.

B15: APE15287 (antibody, V domains shown)
VH: QVQLVQSGAEVKKPGASVKVSCKASGYKFSRYWIQWVRQAPGQGLEWMGEILPGSGSINHNEKFQGRVTMTRDTSTSTVYMELSSLRSEDTAVYYCTRHYGSFDYWGQGTTVTVSS
VL: DIQMTQSPSSLSASVGDRVTITCKASQNVGTDVAWYQQKPGKAPKSLIYSASYRYSGVPSRFSGSGSGTDFTLTISSLQPEDFATYFCHQYESYPFTFGQGTKLEIKR
notes: M6-p1625 series
As to B15, the dissociation constant (Kd) turned out to be 0.186 nM in assay [1] and 0.169 nM in assay [2].

B16: APE15285 (antibody, V domains shown)
VH: QVQLVQSGAEVKKPGASVKVSCKASGYIFASNWIQWVRQAPGQGLEWMGEILPGSGSINHNEKFQGRVTMTRDTSTSTVYMELSSLRSEDTAVYYCTRHYGSFDYWGQGTTVTVSS
VL: DIQMTQSPSSLSASVGDRVTITCKASQNVGTDVAWYQQKPGKAPKSLIYSASYRYSGVPSRFSGSGSGTDFTLTISSLQPEDFATYFCHQYESYPFTFGQGTKLEIKR
notes: M6-p1625 series
B16: the Kd in assay [1] stood at 0.327 nM; in assay [2] it was 0.31 nM.

B17: APE15288 (antibody, V domains shown)
VH: QVQLVQSGAEVKKPGASVKVSCKASGYSFRRHWIQWVRQAPGQGLEWMGEILPGSGSINHNEKFQGRVTMTRDTSTSTVYMELSSLRSEDTAVYYCTRHYGSFDYWGQGTTVTVSS
VL: DIQMTQSPSSLSASVGDRVTITCKASQNVGTDVAWYQQKPGKAPKSLIYSASYRYSGVPSRFSGSGSGTDFTLTISSLQPEDFATYFCHQYESYPFTFGQGTKLEIKR
notes: M6-p1625 series
In the case of B17, the results for the Kd in assay [1] and in assay [2] were 0.199 nM and 0.172 nM, respectively.
